Patent US11054430B2, “Compounds and methods for the detection of methotrexate” (Defined Diagnostics, LLC, priority 2015, dated 2021)
Substitutions are numbered along the chain they refer to.

B1: mAb 10C7: anti-methotrexate mouse monoclonal antibody; variable heavy chain SEQ ID NO:3, variable light chain SEQ ID NO:4 (antibody, V domains shown)
VH: EVQLVESGGGLVKPGGSLRLSCAASGFTFRTYAMSWVRQTPEKRLEWVATITSGGTYIYYLDSVKGRFTISRDNAKNVLYLQMSSLRSEDTAMYYCVRLYGYDGMDYWGQGTSVTVSA
VL: QAVVTQESALTTSPGETVTLTCRSSTGAVSTSNYVNWVQEKPDHLFTGLIGGTKNRVPGVPARFSGSLIGDKAALTITGAQTEDEAIYFCALWYTNHLVFGGGTKLTVL
modifications: mouse
B2: mAb 6D4: anti-methotrexate mouse monoclonal antibody; variable heavy chain SEQ ID NO:11, variable light chain SEQ ID NO:12 (antibody, V domains shown)
VH: QIQLVQSGPELKKPGETVKISCKASGYTFTNYGMNWVKRAPGKGLKWMGWINPYTGEPTYADDFKGRFAFSLETSASTAYLQINNLKNEDMATYFCARNDYYYALDSWGQGTSVTVSS
VL: DVVMTQSPLSLPVSLGDQASISCRSSQSLVKSNGNTYLHWFLQKSGQSPKLLIYKVSNRFSGVPDRFSGSGSGTDFTLKISRVEAEDLGVYFCSQSTHVPWTFGGGTKLEIK
modifications: mouse
B3: mAb 19A6: anti-methotrexate mouse monoclonal antibody; variable heavy chain SEQ ID NO:7, variable light chain SEQ ID NO:8 (antibody, V domains shown)
VH: QIQLVQSGPELKRPGETVKISCKASGYTYTYYGINWLKQAPGKDLKWMGWINPYTGEPAYADDFKGRFAFSLETSATTTYLQINNLKNEDMATYFCARNSYYYALDYWGQGTSVTVSS
VL: B2 VL with S7T, S14N, S28N, S45P
modifications: mouse

Columns and labels:
Type in all cases: binding
Conditions in all cases: chemical spiked at 100 μM; calculated MTX concentration divided by 100 μM
[1] = MTX antibody cross-reactivity with 7-OH-MTX (competitive assay)
Method: (§1) The 4 selected MTX antibodies, 10C7, 45C11, 6D4, 19A6, were evaluated for cross-reactivity with MTX metabolites and related compounds (7-OH-MTX, DAMPA, Folic Acid and Folinic Acid). The amount of cross-reactivity with each chemical is defined as the percent ratio of the calculated MTX concentration of the chemical divided by 100 μM, which was the spiked concentration of the chemical.

[2] = MTX antibody cross-reactivity with DAMPA (competitive assay)
Method: as §1

[3] = MTX antibody cross-reactivity with Folic Acid (competitive assay)
Method: as §1

[4] = MTX antibody cross-reactivity with Folinic Acid (competitive assay)
Method: as §1

| Molecule | % Cross-Reactivity with 7-OH-MTX [1] | % Cross-Reactivity with DAMPA [2] | % Cross-Reactivity with Folic Acid [3] | % Cross-Reactivity with Folinic Acid [4] |
| --- | --- | --- | --- | --- |
| B1 | 0.37% | 0.43% | 0.24% | 0.28% |
| B2 | 0.91% | 0.52% | 0.48% | 0.24% |
| B3 | 0.76% | 0.029% | 0.073% | 0.11% |
